Patent US20130096058A1 (AstraZeneca / MedImmune, published 2013)

Assays:
cyno TRAIL R2-Fc [1] = biological target: T1, cyno TRAIL R2-Fc (cynomolgus monkey (Macaca fascicularis)); assay: competition ELISA: F4 mod 1 coated, cyno TRAIL R2-Fc
T1 construct: The text prints 'cyno TRAIL R2' and 'cyno TRAIL R2-Fc' for the same ELISAs; also called cynomolgus TRAIL R2

cyno TRAIL R2-Fc [2] = biological target: T1, cyno TRAIL R2-Fc; assay: competition ELISA: plate coated with F4 mod 1, cyno TRAIL R2-Fc, monomer titrated as competitor
cyno TRAIL R2-Fc [3] = biological target: T1, cyno TRAIL R2-Fc; assay: competition ELISA: plate coated with F4 mod 1, 0.75 nM cyno TRAIL R2-Fc, purified monomer titrated as competitor
[4] = biological target: endogenous TRAIL R2 expressed on the cell surface (human, UniProt O14763 56-440); assay: cell-based or functional assay

B1: F4 mod 12 (designed binder)
chain: SQIEVKDVTDTTALITWAKPWVDPPPLWGCELTYGIKDVPGDRTTIGLQQKHNQYSIGNLKPDTEYEVSLICFDPYGLKSRPAKETFTTGLGTLGHHHHHHHH
notes: Germline-engineered F4 mod 1
With B1 the “fold difference in binding between F4 mod 1 and F4 mod 12” value (cyno TRAIL R2-Fc [1]) was at most 2 fold and the IC50 (cyno TRAIL R2-Fc [2]) was 50 nM.

B2: F4 mod 1 (designed binder)
chain: AIEVKDVTDTTALITWAKPWVDPPPLWGCELAYGIKDVPGDRTTIGLQQKHTAYSIGNLKPDTEYEVSLICFDPYGLKSRPAKETFTTGGGTLGHHHHHHHH
notes: F4 with a D to G mutation two amino acids before the DE loop
B2 was tested, and the “fold difference in binding between F4 mod 1 and F4 mod 12” value (cyno TRAIL R2-Fc [1]) was at most 2 fold, the IC50 (cyno TRAIL R2-Fc [2]) was 34 nM and the IC50 (cyno TRAIL R2-Fc [3]) was 34 nM.

B3: A3 (1E11) (designed binder)
chain: SGGGGSAIEVKDVTDTTALITWAKPWVDPPPLWGCELAYGIKDVPGDRTTIDLQQKHTAYSIGNLKPDTEYEVSLICFDPYGAKSNPAKETFTTGGGGSGGGGSGGGGSAIEVKDVTDTTALITWAKPWVDPPPLWGCELAYGIKDVPGDRTTIDLQQKHTAYSIGNLKPDTEYEVSLICFDPYGAKSNPAKETFTTGGGGSGGGGSGGGGSAIEVKDVTDTTALITWAKPWVDPPPLWGCELAYGIKDVPGDRTTIDLQQKHTAYSIGNLKPDTEYEVSLICFDPYGAKSNPAKETFTTGGGGSGGGGSGGGGSAIEVKDVTDTTALITWAKPWVDPPPLWGCELAYGIKDVPGDRTTIDLQQKHTAYSIGNLKPDTEYEVSLICFDPYGAKSNPAKETFTTGGGGSGGGGSGTLGHHHHHHHH
For B3, the “Maximum Inhibition % (H2122)” value [4] was 91%.
